Experimental data as given in PMC12469859 (Structure (London, England : 1993), 2025).

T1: Neisseria gonorrhoeae BamE (NgBamE) with a C-terminal 10x histidine tag (N. gonorrhoeae FA1090, UniProt Q5F5Y8 18-125)
T1 sequence (looked up): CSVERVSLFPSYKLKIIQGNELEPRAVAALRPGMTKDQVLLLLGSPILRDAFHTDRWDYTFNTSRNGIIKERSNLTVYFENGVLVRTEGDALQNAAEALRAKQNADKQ

B1: Neisseria gonorrhoeae BamD (NgBamD) (natural protein, N. gonorrhoeae FA1090, UniProt Q50985 17-267, looked up)
chain: CATQGTADKDAQITQDWSVEKLYAEAQDELNSSNYTRAVKLYEILESRFPTSRHARQSQLDTAYAYYKDDEKDKALAAIERFRRLHPQHPNMDYALYLRGLVLFNEDQSFLNKLASQDWSDRDPKANREAYQAFAELVQRFPNSKYAADATARMVKLVDALGGNEMSVARYYMKRGAYIAAANRAKKIIGSYQNTRYVEESLAILELAYKKLDKPQLAADTRRVLETNFPKSPFLTHAWQPDDMPWWRYWH
B2: Neisseria gonorrhoeae BamA (NgBamA) (natural protein)
chain: FTIQDIRVEGLQRTEPSTVFNYLPVKVGDTYNDTHGSAIIKSLYATGFFDDVRVETADGQLLLTVIERPTIGSLNITGAKMLQNDAIKKNLESFGLAQSQYFNQATLNQAVAGLKEEYLGRGKLNIQITPKVTKLARNRVDIDITIDEGKSAKITDIEFEGNQVYSDRKLMRQMSLTEGGIWTWLTRSDRFDRQKFAQDMEKVTDFYQNNGYFDFRILDTDIQTNEDKTRQTIKITVHEGGRFRWGKVSIEGDTNEVPKAELEKLLTMKPGKWYERQQMTAVLGEIQNRMGSAGYAYSEISVQPLPNAGTKTVDFVLHIEPGRKIYVNEIHITGNNKTRDEVVRRELRQMESAPYDTSKLQRSKERVELLGYFDNVQFDAVPLAGTPDKVDLNMSLTERSTGSLDLSAGWVQDTGLVMSAGVSQDNLFGTGKSAALRASRSKTTLNGSLSFTDPYFTADGVSLGYDIYGKAFDPRKASTSVKQYKTTTAGGGVRMGIPVTEYDRVNFGLAAEHLTVNTYNKAPKRYADFIRKYGKTDGADGSFKGLLYKGTVGWGRNKTDSASWPTRGYLTGVNAEIALPGSKLQYYSATHNQTWFFPLSKTFTLMLGGEVGIAGGYGRTKEIPFFENFYGGGLGSVRGYESGTLGPKVYDEYGEKISYGGNKKANVSAELLFPMPGAKDARTVRLSLFADAGSVWDGRTYTAAENGNNKSVYSENAHKSTFTNELRYSAGGAVTWLSPLGPMKFSYAYPLKKKPEDEIQRFQFQLGTTF
B3: Neisseria gonorrhoeae BamC (NgBamC), with the HG2 domain (natural protein, N. gonorrhoeae FA1090, UniProt A0ACH0F7W2 42-398, looked up)
chain: CSGSKTEQPKLDYQSRSHRLIKLEVPPDLNNPDQGNLYRLPAGSGAVRASDLEKRRTPAVQQPADAEVLKSVKGVRLERDGSQRWLVVDGKSPAEIWPLLKAFWQENGFDIESEEPAIGQMETEWAENRAKIPQDSLRRLFDTVGLGGIYSTGERDKFIVRIEQGKNGVSDIFFAHKAMKEVYGDKNKDTTMWQPSASDPNLEAAFLTRFMQYLGVDGRQAENALAKKPTLPAANEMARIEGKSLIVFGDYGRNWRRTGLALDRIGLTVVGQNTERHAFLVQKAPNESNAVTEQKPGLFKRLLGKGKAEKPAEQPELIVYAEPVADGSRIVLLNKDGSAYAGKDASALLGKLHSELR

molecular target: T1, Neisseria gonorrhoeae BamE (NgBamE) …; test: co-purification

Binder | stoichiometry N
B1 | 1
B2 | 1
B3 | 1
